# Measured values: the supplement of paper PMC10724198
# ± gives the standard deviation of the averaged measurements.
# System: Saccharomyces cerevisiae
# Assay: protein stability index of tFT-peptide fusion (C-terminal peptide) (PSI (0-1 scale)); higher = more stable (slower turnover)
# Details: genetic background: wild type; temperature: 30 C
# Method: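 Multiplexed protein stability (MPS) profiling in S. cerevisiae. Random 12-aa peptides (tFT-X12 library) are fused to the C-terminus of a sfGFP-mCherry tandem fluorescent timer, after mCherry and a GGGS linker. Cells are FACS-sorted into 8 mCherry/sfGFP bins and deep-sequenced. The protein stability index (PSI) is the read-weighted bin average, scaled from 0 (unstable) to 1 (stable). Only peptides with >10 reads are reported; cells were grown at 30 °C in SC-His with glucose.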
# 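Also: PSI is a weighted mean of sequencing reads over stability bins, variants kept only with over 10 reads, mCherry proximal and sfGFP distal, peptide attached via GGGS linker.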
row,Sequence,protein stability index
1,EKVGAGVRLAWN,0.695 ± 0.003
2,ELCPFLPLFLTY,0.551 ± 0.03
3,ELEIRSLCPDVV,0.694 ± 0.024
4,ELVYVFLGNLPP,0.632 ± 0.034
5,ELWRAGEVRGGK,0.713 ± 0.035
6,EMGGLKACRGVG,0.56565 ± 0.00029
7,EMNKGKREKKGE,0.684 ± 0.084
8,EMYEKLKSYIVK,0.685 ± 0.013
9,ENDKPITRKETQ,0.605 ± 0.07
10,ENPVVRSGAVGS,0.698 ± 0.031
11,EPAWVNDQKERS,0.832 ± 0.029
12,EPGFWGGRGGRA,0.661 ± 0.01
13,EPLGSGLQCTAG,0.731 ± 0.005
14,EPRPTPLSTPRH,0.671 ± 0.094
15,EQRLQRATELGR,0.52028 ± 0.00016
16,EQRQVQVTWRQD,0.66 ± 0.055
17,EQTIGDRVPGKG,0.658 ± 0.051
18,EQVRVDETTGRR,0.722 ± 0.025
19,ERARSRGGGGCV,0.632 ± 0.046
20,ERCQGGSGVLIR,0.638 ± 0.1
21,ERDDRSFEWPRQ,0.69 ± 0.025
22,ERGKGSRVGGST,0.643 ± 0.1
23,ERGREVVSRGVQ,0.724 ± 0.014
24,ERKESKSRKVER,0.726 ± 0.081
25,ERKKIKDKIKKN,0.702 ± 0.051

row,Sequence,protein stability index
1,ERKQKKKTKEKY,0.682 ± 0.026
2,ERKQRKREQRDR,0.6609 ± 0.0038
3,ERLACRFRTVVM,0.595 ± 0.053
4,ERNDLGNRLSMD,0.654 ± 0.02
5,ERRGAAGAGSTR,0.744 ± 0.045
6,ERSRRVSNIMVL,0.48 ± 0.095
7,ERSVTVKIRDLL,0.6767 ± 0.0036
8,ERTSSSWPPPAV,0.72 ± 0.09
9,ERVEETGREQPT,0.754 ± 0.037
10,ESPTWVVLEGLG,0.6996 ± 0.0014
11,ESRGLVRRLGTG,0.693 ± 0.058
12,ESRGVRAGTWQG,0.694 ± 0.05
13,ESSTGYSPPLPV,0.666 ± 0.047
14,ETNKEDKGKKSI,0.6577 ± 0.0051
15,EVCAGNFVCSLG,0.708 ± 0.015
16,EVDRGSNWEGRL,0.66 ± 0.011
17,EVLTSRWCGLIS,0.744 ± 0.074
18,EVMAIISTRILG,0.647 ± 0.07
19,EVNGNYNIVGKA,0.652 ± 0.07
20,EVRDLSQFMKRY,0.727 ± 0.0092
21,EVRGKSVTIFVR,0.57 ± 0.025
22,EVTAQLCADKEP,0.564 ± 0.12
23,EVTDSVKTEPAT,0.6463 ± 0.0043
24,EVTEIAQFRDKR,0.7 ± 0.017
25,EVWGGVCWRAGG,0.735 ± 0.12

row,Sequence,protein stability index
1,EVYPAEADVFGG,0.69 ± 0.052
2,EWEKPEDLHKPA,0.659 ± 0.058
3,EWGGGGGGGKCV,0.733 ± 0.054
4,EWQWGWGGVRRD,0.765 ± 0.032
5,EWTTTVLGGQLR,0.696 ± 0.027
6,EWVPDIANLRRR,0.752 ± 0.16
7,EYFKTKQKKKKE,0.753 ± 0.12
8,EYGECWCWSSWR,0.732 ± 0.059
9,FACAGPAAFHSL,0.597 ± 0.014
10,FADTALLCELLR,0.687 ± 0.033
11,FAKELSLRSFSA,0.814 ± 0.04
12,FALCLPPPSPPA,0.761 ± 0.026
13,FALFQSFCFFCF,0.564 ± 0.061
14,FALTHSRSPSTS,0.799 ± 0.1
15,FASSSDSLWRGI,0.679 ± 0.014
16,FATPDGFVSLWF,0.774 ± 0.14
17,FAVLSFRFPGGL,0.693 ± 0.099
18,FAVSTVCWCCGL,0.647 ± 0.041
19,FCGGYHATVKMR,0.68 ± 0.015
20,FCNAVLSCFSIF,0.597 ± 0.0068
21,FCVVVAIVPLWG,0.512 ± 0.013
22,FCWVVFHSGISS,0.713 ± 0.085
23,FCYWCLGWGVGL,0.692 ± 0.059
24,FELYGVGLGTCA,0.633 ± 0.17
25,FEVAPAPLDQVV,0.653 ± 0.028

row,Sequence,protein stability index
1,FFCTHFQLLFSP,0.641 ± 0.019
2,FFDKLEIRALVV,0.6302 ± 0.00098
3,FFERRLGYYSRM,0.85 ± 0.09
4,FFFLCLPSSFAF,0.614 ± 0.0098
5,FFGFLLFCSRFS,0.516 ± 0.016
6,FFMEKPSSGCTS,0.685 ± 0.017
7,FFPLSSLIAFLP,0.6815 ± 0.0025
8,FFPPLPATSVPA,0.561 ± 0.1
9,FFSFILGGFLLG,0.6682 ± 0.00082
10,FFSSHPCYFSTF,0.69 ± 0.072
11,FFSVLSAISFFF,0.628 ± 0.06
12,FFVGGVTDLFVS,0.724 ± 0.0092
13,FFWTTPRFPFPS,0.725 ± 0.021
14,FFYFSLSLSHFC,0.496 ± 0.025
15,FGAATLFLLAPC,0.55 ± 0.02
16,FGASYLGSLLDV,0.699 ± 0.057
17,FGCGLYPLRVLH,0.604 ± 0.034
18,FGCISAGLGWMY,0.721 ± 0.048
19,FGCLGVLGAGRC,0.713 ± 0.034
20,FGGGGGGVGLAV,0.65 ± 0.033
21,FGGGSHRRGRCR,0.68 ± 0.018
22,FGGSTPVLKPTQ,0.719 ± 0.019
23,FGLWGFGRPRGW,0.721 ± 0.031
24,FGQERLHMSILF,0.692 ± 0.029
25,FGSLRLQITVNP,0.557 ± 0.098

row,Sequence,protein stability index
1,FGTSLLPLPPPD,0.601 ± 0.025
2,FGVQTFIGPTIV,0.677 ± 0.012
3,FGVSIGELAGRH,0.686 ± 0.035
4,FGVTGLGVGLVW,0.639 ± 0.0066
5,FHFLCLVGSFRG,0.528 ± 0.037
6,FIGFGCGLVWSV,0.613 ± 0.019
7,FILERSLLSLQG,0.678 ± 0.18
8,FILLFGCFGFFC,0.557 ± 0.051
9,FIRDKQTSFDIR,0.68036 ± 0.00024
10,FKLVGRHLHSFD,0.652 ± 0.06
11,FKRLSTDCSVNS,0.687 ± 0.061
12,FKSVPTLPHPSP,0.6701 ± 0.0045
13,FLASFSSFMFYL,0.591 ± 0.016
14,FLDPFLTRRCVF,0.694 ± 0.055
15,FLFADVSSPSSI,0.725 ± 0.038
16,FLGGWVCGWPQF,0.772 ± 0.15
17,FLISSGPSVSVL,0.623 ± 0.026
18,FLLLSPARLVLL,0.5529 ± 0.0021
19,FLLYSSSAIPEH,0.759 ± 0.065
20,FLRISPPPPSPP,0.676 ± 0.077
21,FLRLFLQQVEFL,0.7157 ± 0.0026
22,FLSFIADVTGKR,0.707 ± 0.019
23,FLSFLFTGFIQL,0.595 ± 0.017
24,FLSGPCLLSFAS,0.679 ± 0.12
25,FLVFRFPFGFSC,0.566 ± 0.025

row,Sequence,protein stability index
1,FLVNVIRSCKGE,0.685 ± 0.059
2,FLWSSLYYARLD,0.75 ± 0.032
3,FLYDPVMLGLAC,0.469 ± 0.053
4,FMLGYIRPKWGG,0.714 ± 0.12
5,FMRASPSACTCL,0.668 ± 0.094
6,FMSMSYDEWAYL,0.721 ± 0.064
7,FMYRDVPFLRAP,0.697 ± 0.03
8,FNHYPSPPQRFY,0.685 ± 0.072
9,FNIIHKKNTKEI,0.778 ± 0.03
10,FNPRIGGDCRSA,0.678 ± 0.031
11,FNRTRRLPLDSL,0.7018 ± 0.0053
12,FPAYPLPPPAPN,0.697 ± 0.067
13,FPFDMTSTEMSL,0.639 ± 0.096
14,FPFGICMISCDG,0.628 ± 0.02
15,FPGSLVPVASVP,0.71 ± 0.089
16,FPHPSPPPFPPP,0.698 ± 0.026
17,FPLPPPPPAVFL,0.673 ± 0.086
18,FPLPPPPSLSTP,0.656 ± 0.036
19,FPLPSPPRPFSF,0.761 ± 0.041
20,FPPCSPPPPAPL,0.625 ± 0.05
21,FPPLLFPPTPTR,0.842 ± 0.027
22,FPPLTRPSPIYP,0.726 ± 0.03
23,FPPPCVLPLPRT,0.723 ± 0.02
24,FPPPPPHTPSSA,0.694 ± 0.057
25,FPPTALESMPSS,0.737 ± 0.042

row,Sequence,protein stability index
1,FPRLPSRPLSSL,0.6898 ± 0.0033
2,FPSFSLIFFSLI,0.489 ± 0.074
3,FPSLLFSSPSAF,0.7 ± 0.038
4,FPSPLLPYPLLP,0.747 ± 0.052
5,FPVGVRLNQNET,0.718 ± 0.017
6,FPVSPFPPPPSS,0.742 ± 0.16
7,FQAYPPFSLVPA,0.5533 ± 0.0029
8,FQEDSPVSQRYP,0.645 ± 0.041
9,FQGALFTEVVES,0.716 ± 0.043
10,FQNFTLSQEQSE,0.717 ± 0.014
11,FRCPGFYVVIFP,0.582 ± 0.0092
12,FRDLRSSVLVLP,0.6599 ± 0.0058
13,FRFVFFFRSGLV,0.595 ± 0.063
14,FRIVLIRASDPS,0.625 ± 0.032
15,FRLLLFPLPLSP,0.494 ± 0.011
16,FRLPTCLLLFPF,0.594 ± 0.098
17,FRPPVPPPPVLP,0.683 ± 0.012
18,FRSFLDHPRSPC,0.729 ± 0.029
19,FRVFLGHLITRK,0.727 ± 0.039
20,FRVKVFGLPFWL,0.509 ± 0.028
21,FSAFFLFMFCFL,0.488 ± 0.025
22,FSCKGSYIFTRR,0.651 ± 0.012
23,FSCLRSINRDVG,0.702 ± 0.044
24,FSETDSWCQARS,0.717 ± 0.013
25,FSGGPSTPPTWS,0.817 ± 0.01

row,Sequence,protein stability index
1,FSHPQPLLPFPV,0.662 ± 0.0094
2,FSISCFRVSSDF,0.761 ± 0.032
3,FSKVLCSIVRGR,0.655 ± 0.015
4,FSLFSLPFPFPL,0.7752 ± 0.0015
5,FSLLTFPPSSPT,0.716 ± 0.016
6,FSLPLSPRGDCP,0.6991 ± 0.0014
7,FSMHFARFFSCS,0.687 ± 0.061
8,FSPPTLSLPGPI,0.721 ± 0.0083
9,FSPRHSPFSVAR,0.803 ± 0.05
10,FSSGLAEVGVAR,0.676 ± 0.074
11,FSSLHLTHELLS,0.664 ± 0.061
12,FSTIWDRLLLTG,0.668 ± 0.083
13,FSVGSPLSSPGI,0.713 ± 0.04
14,FSVHVPPFPPVP,0.654 ± 0.038
15,FSYPPSLVPFCS,0.702 ± 0.019
16,FTACSVCVETMN,0.678 ± 0.17
17,FTGYPKHTRLPY,0.687 ± 0.017
18,FTKAVQVFLASV,0.635 ± 0.057
19,FTNDMSSGRVAI,0.692 ± 0.016
20,FTPPPPPPPPVL,0.6691 ± 0.0051
21,FVAGFAGGAVGV,0.72 ± 0.0078
